This note sets out measurements from CN117624352A (UNIV XIAMEN, dated 2024).

For test [1], the target named is T1, Tmem176b表达纯化抗原142-196aa xy02b-hFc-6His(Abclonal) (mouse, UniProt Q9R1Q6 142-196).
T1 construct: range 142-196; also called 体外表达纯化抗原Tmem176b; Tmem176b抗原; not shown: hFc of the xy02b-hFc-6His vector; 6His tag
T1 sequence (looked up): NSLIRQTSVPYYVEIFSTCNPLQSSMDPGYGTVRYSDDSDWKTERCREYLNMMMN
Nature of the test: Capture ELISA; antibody coated at 2 μg/mL, antigen titrated from 0.1 μg/ml in 3-fold steps. On the technique in general: ELISA stands for enzyme-linked immunosorbent assay.

The target in test [2] is T1, Tmem176b表达纯化抗原142-196aa …. The experiment in a line: Biacore (SPR); antigen coupled to the chip, 6E8 as analyte at 1.5625-50 nM; mean of 3 runs.

B1: Tmem176b单克隆抗体6E8 (antibody, V domains shown)
VH: QSVEESGGRLLKPDETLTLTCTVSGFSLSSYAMSWVRQAPGKGLEWIGIISIRGNTYYASWAKGRFTISKTSTTVDLKITSPTTEDTATYFCARNTLYSSGWGGSDLWGQGTLVTVSS
VL: AQVLTQTPSPVSAAVGGTVTINCQASQSVYNNNNLAWYQQKPGQPPKLLIYYASTLASGVSSRFKGSGSGTQFTLTISGVQCDDAATYYCQGEFSCSSADCNAFGGGTEVVVKG
notes: Recombinant rabbit monoclonal antibody; also called α-Tmem176b单抗(6E8); Tmem176b单抗6E8
As a reminder, the EC50 is the concentration giving half of the maximal effect. Read a high EC50 as weaker potency. As a reminder, the Kd is the constant that tells how readily two partners part at equilibrium. A high value points to a looser complex. Regarding B1, in test [1], the EC50 was determined as 0.893 ng/mL. In test [2], this molecule showed a Kd of 0.959 nM.
